From IntAct's records for PubMed 23957209 come the findings set out here.

B1: NADPH oxidase organizer 1 (Homo sapiens), Q8NFA2-3 (parent)
chain: MAGPRYPVSVQGAALVQIKRLQTFAFSVRWSDGSDTFVRRSWDEFRQLKKTLKETFPVEAGLLRRSDRVLPKLLDAPLLGRVGRTSRGLARLQLLETYSRRLLATAERVARSPTITGFFAPQPLDLEPALPPGSRVILPTPEEQPLSRAAGRLSIHSLEAQSLRCLQPFCTQDTRDRPFQAQAQESLDVLLRHPSGWWLVENEDRQTAWFPAPYLEEAAPGQGREGGPSLGSSGPQFCASRAYESSRADELSVPAGARVRVLETSDRGWWLCRYGDRAGLLPAVLLRPEGLGALLSGTGFRGGDDPAGEARGFPEPSQATAPPPTVPTRPSPGAIQSRCCTVTRRALERRPRRQGRPRGCVDSVPHPTTEQ
partner: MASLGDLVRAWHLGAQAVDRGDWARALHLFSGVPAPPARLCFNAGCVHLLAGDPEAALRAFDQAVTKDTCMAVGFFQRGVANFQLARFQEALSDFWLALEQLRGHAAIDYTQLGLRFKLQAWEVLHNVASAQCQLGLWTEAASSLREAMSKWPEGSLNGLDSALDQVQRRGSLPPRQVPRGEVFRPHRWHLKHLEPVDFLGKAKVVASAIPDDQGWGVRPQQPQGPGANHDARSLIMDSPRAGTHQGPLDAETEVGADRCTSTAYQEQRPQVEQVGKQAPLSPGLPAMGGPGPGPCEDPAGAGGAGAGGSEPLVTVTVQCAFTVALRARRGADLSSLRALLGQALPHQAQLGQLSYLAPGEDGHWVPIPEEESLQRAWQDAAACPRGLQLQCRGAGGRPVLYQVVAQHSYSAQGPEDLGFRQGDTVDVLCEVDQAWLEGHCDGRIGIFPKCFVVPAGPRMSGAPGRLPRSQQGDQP
B2: NADPH oxidase organizer 1 (Homo sapiens), Q8NFA2-3 (parent)
chain: B1 chain
partner: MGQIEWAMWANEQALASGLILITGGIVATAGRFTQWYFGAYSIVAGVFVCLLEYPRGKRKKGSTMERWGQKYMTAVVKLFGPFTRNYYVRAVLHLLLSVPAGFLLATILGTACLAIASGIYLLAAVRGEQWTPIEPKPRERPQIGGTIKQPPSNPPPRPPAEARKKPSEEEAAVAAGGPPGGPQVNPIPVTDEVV
B3: Cytochrome b-245 light chain (Homo sapiens), P13498 (parent)
chain: B2 partner
partner: B1 chain
B4: NADPH oxidase activator 1 (Homo sapiens), Q86UR1 (parent)
chain: B1 partner
partner: B1 chain
B5: NADPH oxidase organizer 1 (Homo sapiens), Q8NFA2-3 (parent)
chain: B1 chain
partner: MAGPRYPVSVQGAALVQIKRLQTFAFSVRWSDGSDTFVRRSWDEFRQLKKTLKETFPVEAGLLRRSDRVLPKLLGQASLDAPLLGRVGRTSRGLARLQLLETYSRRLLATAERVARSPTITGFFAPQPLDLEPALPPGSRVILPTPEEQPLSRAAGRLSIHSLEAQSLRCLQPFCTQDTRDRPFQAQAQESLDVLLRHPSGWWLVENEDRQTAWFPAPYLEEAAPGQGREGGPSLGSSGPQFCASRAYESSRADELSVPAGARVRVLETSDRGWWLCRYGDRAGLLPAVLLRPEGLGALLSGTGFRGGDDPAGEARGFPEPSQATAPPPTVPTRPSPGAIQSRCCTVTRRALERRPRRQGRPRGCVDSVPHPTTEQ

Variants of B1 are the subject of the first assay. The settings on record: with noxa1_human NOXA1, Q86UR1.
Consider MAGPRYPVSVQGAALVQIKRLQTFAFSVRWSDGSDTFVRRSWDEFRQLKKTLKETFPVEAGLLRRSDRVLPKLLDAPLLGRVGRTSRGLARLQLLETYSRRLLATAERVARSPTITGFFAPQPLDLEPALPPGSRVILPTPEEQPLSRAAGRLSIHSLEAQSLRCLQPFCTQDTRDRPFQAQAQESLDVLLRHPSGWWLVENEDRQTAWFPAPYLEEAAPGQGREGGPSLGSSGPQFCASRAYESSRADELSVPAGARVRVLETSDRGWWLCRYGDRAGLLPAVLLRPEGLGALLSGTGFRGGDDPAGEARGFPEPSQATAPPPTVPTRPSPGAIQSRCCTVARRALERRPRRQGRPRGCVDSVPHPTTEQ [T343A], for which the “effect of a mutation on the interaction” value is on record as “disrupting interaction”.

Another assay covers variants of B1. The settings on record: with noxa1_human NOXA1, Q86UR1. The source holds these as a separate data set.
Regarding MAGPRYPVSVQGAALVQIKRLQTFAFSVRWSDGSDTFVRRSWDEFRQLKKTLKETFPVEAGLLRRSDRVLPKLLDAPLLGRVGRTSRGLARLQLLETYSRRLLATAERVARSPTITGFFAPQPLDLEPALPPGSRVILPTPEEQPLSRAAGRLSIHSLEAQSLRCLQPFCTQDTRDRPFQAQAQESLDVLLRHPSGWWLVENEDRQTAWFPAPYLEEAAPGQGREGGPSLGSSGPQFCASRAYESSRADELSVPAGARVRVLETSDRGWWLCRYGDRAGLLPAVLLRPEGLGALLSGTGFRGGDDPAGEARGFPEPSQATAPPPTVPTRPSPGAIQSRCCAVTRRALERRPRRQGRPRGCVDSVPHPTTEQ [T341A], the “effect of a mutation on the interaction” value is “disrupting interaction”.

In another assay the parent is B1. Conditions: with noxa1_human NOXA1, Q86UR1. The source holds these as a separate data set.
As to MAGPRYPVSVQGAALVQIKRLQTFAFSVRWSDGSDTFVRRSWDEFRQLKKTLKETFPVEAGLLRRSDRVLPKLLDAPLLGRVGRTSRGLARLQLLETYSRRLLATAERVARSPTITGFFAPQPLDLEPALPPGSRVILPTPEEQPLSRAAGRLSIHSLEAQSLRCLQPFCTQDTRDRPFQAQAQESLDVLLRHPSGWWLVENEDRQTAWFPAPYLEEAAPGQGREGGPSLGSSGPQFCASRAYESSRADELSVPAGARVRVLETSDRGWWLCRYGDRAGLLPAVLLRPEGLGALLSGTGFRGGDDPAGEARGFPEPSQATAPPPTVPTRPSPGAIQSRCCDVTRRALERRPRRQGRPRGCVDSVPHPTTEQ [T341D], the “effect of a mutation on the interaction” value is on record as “increasing interaction”.

In the next assay the parent is B1. The settings on record: with noxa1_human NOXA1, Q86UR1. The source holds these as a separate data set.
As for MAGPRYPVSVQGAALVQIKRLQTFAFSVRWSDGSDTFVRRSWDEFRQLKKTLKETFPVEAGLLRRSDRVLPKLLDAPLLGRVGRTSRGLARLQLLETYSRRLLATAERVARSPTITGFFAPQPLDLEPALPPGSRVILPTPEEQPLSRAAGRLSIHSLEAQSLRCLQPFCTQDTRDRPFQAQAQESLDVLLRHPSGWWLVENEDRQTAWFPAPYLEEAAPGQGREGGPSLGSSGPQFCASRAYESSRADELSVPAGARVRVLETSDRGWWLCRYGDRAGLLPAVLLRPEGLGALLSGTGFRGGDDPAGEARGFPEPSQATAPPPTVPTRPSPGAIQSRCCEVTRRALERRPRRQGRPRGCVDSVPHPTTEQ [T341E], the “effect of a mutation on the interaction” value was “increasing interaction”.

In the next assay the parent is B2. The settings on record: with cy24a_human CYBA, P13498.
For the variant MAGPRYPVSVQGAALVQIKRLQTFAFSVRWSDGSDTFVRRSWDEFRQLKKTLKETFPVEAGLLRRSDRVLPKLLDAPLLGRVGRTSRGLARLQLLETYSRRLLATAERVARSPTITGFFAPQPLDLEPALPPGSRVILPTPEEQPLSRAAGRLSIHSLEAQSLRCLQPFCTQDTRDRPFQAQAQESLDVLLRHPAGWWLVENEDRQTAWFPAPYLEEAAPGQGREGGPSLGSSGPQFCASRAYESSRADELSVPAGARVRVLETSDRGWWLCRYGDRAGLLPAVLLRPEGLGALLSGTGFRGGDDPAGEARGFPEPSQATAPPPTVPTRPSPGAIQSRCCTVTRRALERRPRRQGRPRGCVDSVPHPTTEQ [S195A], the “effect of a mutation on the interaction” value is listed as “decreasing interaction”.

In the next assay the parent is B2. Conditions: with cy24a_human CYBA.
In the case of MAGPRYPVSVQGAALVQIKRLQTFAFSVRWSDGSDTFVRRSWDEFRQLKKTLKETFPVEAGLLRRSDRVLPKLLDAPLLGRVGRTSRGLARLQLLETYSRRLLATAERVARSPTITGFFAPQPLDLEPALPPGSRVILPTPEEQPLSRAAGRLSIHSLEAQSLRCLQPFCTQDTRDRPFQAQAQESLDVLLRHPEGWWLVENEDRQTAWFPAPYLEEAAPGQGREGGPSLGSSGPQFCASRAYESSRADELSVPAGARVRVLETSDRGWWLCRYGDRAGLLPAVLLRPEGLGALLSGTGFRGGDDPAGEARGFPEPSQATAPPPTVPTRPSPGAIQSRCCTVTRRALERRPRRQGRPRGCVDSVPHPTTEQ [S195E], the “effect of a mutation on the interaction” value is recorded as “decreasing interaction”.

In the next assay the parent is B2. Conditions: with cy24a_human CYBA. This is another data set of the same source.
As for MAGPRYPVSVQGAALVQIKRLQTFAFSVRWSDGSDTFVRRSWDEFRQLKKTLKETFPVEAGLLRRSDRVLPKLLDAPLLGRVGRTSRGLARLQLLETYSRRLLATAERVARSPTITGFFAPQPLDLEPALPPGSRVILPTPEEQPLSRAAGRLSIHSLEAQSLRCLQPFCTQDTRDRPFQAQAQESLDVLLRHPDGWWLVENEDRQTAWFPAPYLEEAAPGQGREGGPSLGSSGPQFCASRAYESSRADELSVPAGARVRVLETSDRGWWLCRYGDRAGLLPAVLLRPEGLGALLSGTGFRGGDDPAGEARGFPEPSQATAPPPTVPTRPSPGAIQSRCCTVTRRALERRPRRQGRPRGCVDSVPHPTTEQ [S195D], the “effect of a mutation on the interaction” value is on record as “decreasing interaction”.

In a further assay the parent is B3. The settings on record: with NOXO1, Q8NFA2-3.
As for MGQIEWAMWANEQALASGLILITGGIVATAGRFTQWYFGAYSIVAGVFVCLLEYPRGKRKKGSTMERWGQKYMTAVVKLFGPFTRNYYVRAVLHLLLSVPAGFLLATILGTACLAIASGIYLLAAVRGEQWTPIEPKPRERPQIGGTIKQPPSNPQPRPPAEARKKPSEEEAAVAAGGPPGGPQVNPIPVTDEVV [P156Q], the “effect of a mutation on the interaction” value is “disrupting interaction”.

The variants in a further assay derive from B4. The settings on record: with NOXO1, Q8NFA2-3.
In the case of MASLGDLVRAWHLGAQAVDRGDWARALHLFSGVPAPPARLCFNAGCVHLLAGDPEAALRAFDQAVTKDTCMAVGFFQRGVANFQLARFQEALSDFWLALEQLRGHAAIDYTQLGLRFKLQAWEVLHNVASAQCQLGLWTEAASSLREAMSKWPEGSLNGLDSALDQVQRRGSLPPRQVPRGEVFRPHRWHLKHLEPVDFLGKAKVVASAIPDDQGWGVRPQQPQGPGANHDARSLIMDSPRAGTHQGPLDAETEVGADRCTSTAYQEQRPQVEQVGKQAPLSPGLPAMGGPGPGPCEDPAGAGGAGAGGSEPLVTVTVQCAFTVALRARRGADLSSLRALLGQALPHQAQLGQLSYLAPGEDGHWVPIPEEESLQRAWQDAAACPRGLQLQCRGAGGRPVLYQVVAQHSYSAQGPEDLGFRQGDTVDVLCEVDQARLEGHCDGRIGIFPKCFVVPAGPRMSGAPGRLPRSQQGDQP [W436R], the “effect of a mutation on the interaction” value is reported as “disrupting interaction”.

Another assay covers variants of B5. Conditions: with noxo1_human NOXO1, Q8NFA2.
In the case of MAGPRYPVSVQGAALVQIKRLQTFAFSVRWSDGSDTFVRRSWDEFRQLKKTLKETFPVEAGLLRRSDRVLPKLLDAPLLGRVGRTSRGLARLQLLETYSRRLLATAERVARSPTITGFFAPQPLDLEPALPPGSRVILPTPEEQPLSRAAGRLSIHSLEAQSLRCLQPFCTQDTRDRPFQAQAQESLDVLLRHPSGRWLVENEDRQTAWFPAPYLEEAAPGQGREGGPSLGSSGPQFCASRAYESSRADELSVPAGARVRVLETSDRGWWLCRYGDRAGLLPAVLLRPEGLGALLSGTGFRGGDDPAGEARGFPEPSQATAPPPTVPTRPSPGAIQSRCCTVTRRALERRPRRQGRPRGCVDSVPHPTTEQ [W197R], the “effect of a mutation on the interaction” value was “disrupting interaction”.
